Values after ≈ are worked out from the molar mass of the structure shown. Non-standard residues stand in square brackets, D forms with d. No end group written: not given here. pGlu = O=C1CC[C@@H](C(=O)O)N1
What was measured:
[1] = test system: spleen rosette forming cells (RFC); assay: cells; conditions: Mus musculus, read-out: AZ minimal concentration inhibiting 50 percent spleen rosette forming cells
Protocol: At the end of the incubation, 12 × 10^6 sheep red blood cells (SRBC) are added to the cells in the test sample. The cells in the sample are centrifuged for 6 minutes at 200 g. and carefully and gently resuspended by rotation on a roller (10 cm. diameter) at low speed (10 rev./min.). RFC are counted in a haematocytometer. In the absence of thymic activity, the number of RFC is 1210/10^6 cells ± 120 (standard deviation, SD). In the presence of thymic activity, the RFC level is lowered to 200 to 400/10^6 cells.

[2] = isoelectric point; type: physicochemical; conditions: given as pH
From the text: The polypeptide hormone of this invention has an isoelectric point (pI) at pH 7.5 ± 0.1. Lack of affinity to activated charcoal indicates the absence of aromatic amino acids. Elution of the polypeptide with the void volume when chromatographed on Sephadex G-10 and retention on Sephadex G-15, G-25 and G-50 indicates a molecular weight greater than 700 and less than 3,000. Ultrafiltration through Amicon membranes indicates a molecular weight of […] to 10,000. No significant retention of the polypeptide is observed on CF-50, PM-30 and PM-10 membranes which have molecular cut-offs of 50,000; 30,000 and 10,000 respectively. Conversely no significant activity is found in UM2 and UM0.5 filtrates which have molecular weight cut-offs of 1,000 and 500 respectively. The polypeptide has the property that it binds to carboxymethyl cellulose at pH lower than 7.0 and to DEAE cellulose at a pH higher than 9.0. The polypeptide bound on carboxymethyl cellulose can be eluted with 0.12M NaCl.

| IC50 [1] | Molecule | isoelectric point (pI) [2] | isoelectric point (pI) ([2]; listed as thymic factor) |
| --- | --- | --- | --- |
| 1 µg/mL (≈ 3.61 µM) | Cn1cnc([N+](=O)[O-])c1Sc1ncnc2nc[nH]c12 [AZ, azathioprine] | – | – |
| – | pyroglutamyl-Ala-Lys-Ser-Gln-Gly-Gly-Ser-Asn ([pGlu]AKSQGGSN) [polypeptide hormone, polypeptide hormone isolated from porcine blood] | 7.5 ± 0.1 | ~7.5 |
